Here are results for one substance from patent US20210072252A1.

The experiment concerns the target synthetic peptide with N-terminal methionine (Example 1, on nanogel surface). In words: single-molecule detection, TIRF microscopy; labeled NAAB on peptide immobilized on nanogel; counts per field of view.

Take “wild-type E. coli methionine aminopeptidase (eMAP) (from UniProt P0AE18 1-264) (enzyme)”: the ratio of specific to non-specific binding is 2 to 1.
